Assay results as given in the supplement of paper PMC12042874.
± gives the uncertainty stated by the source.

Assay: amyloid nucleation score (Sup35N fusion, yeast selection) (log enrichment); library NNK2; higher = more nucleation; inactive = no reads after selection
Method in brief: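 Sup35N was fused to peptides of 20 random codons and expressed in psi-negative yeast, which were induced with 100 μM copper sulfate for 24 hours and then grown on medium lacking adenine and uracil for 7 days at 30°C. Plasmid inserts from input and output were sequenced on Illumina. The nucleation score is the DiMSum log enrichment of output over input reads, centred on the mode score of non-aggregating sequences. Sequences with under 100 input reads were left out, and random libraries had three technical output replicates.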

Substance: ASVCHTLVGILYDDEGARTR
- amyloid nucleation score: 0.85 ± 0.4

Substance: ATFVIY
- amyloid nucleation score: -0.603 ± 1

Substance: ATIGSLWRNYNERLFST
- amyloid nucleation score: 4.06 ± 0.089

Substance: ATPLSGMVFNWSFEWQGCLL
- amyloid nucleation score: 0.949 ± 0.18

Substance: AVIDIIKRTSCTCDESCCIL
- amyloid nucleation score: 0.503 ± 0.31

Substance: AVIVAIFCSSGYYRHFYTFT
- amyloid nucleation score: -0.214 ± 1

Substance: AVLFNDTWGGFAPNWYLLLS
- amyloid nucleation score: 0.474 ± 0.38

Substance: AVNGQGDS
- amyloid nucleation score: -0.231 ± 0.43

Substance: AVPCNC
- amyloid nucleation score: -0.216 ± 0.62

Substance: AVRPGSRSWGVIRGVNSTFL
- amyloid nucleation score: 1.08 ± 0.43

Substance: AVSYVDILAFGLMFQKSLGK
- amyloid nucleation score: 5.74 ± 0.063

Substance: AVVDH
- amyloid nucleation score: 0.336 ± 0.41

Substance: AVVIWAKML
- amyloid nucleation score: 0.372 ± 0.27

Substance: AVYCTL
- amyloid nucleation score: 0.088 ± 0.35

Substance: AWDEINYD
- amyloid nucleation score: 0.292 ± 0.56

Substance: AWETFELVLY
- amyloid nucleation score: -0.145 ± 0.76

Substance: AWHIPLTCGLHVIFLGR
- amyloid nucleation score: inactive

Substance: AWLVLWDIAI
- amyloid nucleation score: 0.583 ± 0.36

Substance: AWLYFVLFNRVTCCMTNVEE
- amyloid nucleation score: 9.571 ± 0.037

Substance: AWMRDLCSVYRCVGCDLLWA
- amyloid nucleation score: 6.25 ± 0.081

Substance: AWYKFIITMPFIFKSDITST
- amyloid nucleation score: -0.454 ± 0.54

Substance: AYFTYDNANLFDPFTRYTIE
- amyloid nucleation score: 0.073 ± 0.55

Substance: AYHAMVCYINLFSDVYLHGY
- amyloid nucleation score: 4.98 ± 0.089

Substance: AYIARYNPTSLNRVEYPPDD
- amyloid nucleation score: 1.49 ± 0.58

Substance: AYKNYIPVVSVH
- amyloid nucleation score: -1.37 ± 1.1

Substance: AYRLGFNVMLTDAVVARDIL
- amyloid nucleation score: 0.512 ± 0.66

Substance: AYRWMDSSSTRFGTGLG
- amyloid nucleation score: 0.895 ± 0.81

Substance: AYWYSQRAMGFKHSLFLT
- amyloid nucleation score: -0.921 ± 0.41

Substance: AYYFVLNVSTNLGNLGRTIL
- amyloid nucleation score: 4.35 ± 0.11

Substance: CACDNHIVNRSESHCYGSLR
- amyloid nucleation score: -0.293 ± 0.39

Substance: CALGDATFNVWYMLS
- amyloid nucleation score: 4.14 ± 0.05

Substance: CALNFCAEVARFLRMLKSLL
- amyloid nucleation score: -0.042 ± 0.79

Substance: CARFAN
- amyloid nucleation score: 0.599 ± 0.64

Substance: CASEVDNNSPPRWVRRTAGV
- amyloid nucleation score: 0.777 ± 0.45

Substance: CASLRIEDP
- amyloid nucleation score: 1.17 ± 0.18

Substance: CCAVTVAMECGGIVLVRYCF
- amyloid nucleation score: 0.453 ± 0.66

Substance: CCCLSKHSNECGLRMDRPFT
- amyloid nucleation score: 0.909 ± 0.6

Substance: CCDVRS
- amyloid nucleation score: 0.558 ± 0.51

Substance: CCFTGIKGSYCFSWLACG
- amyloid nucleation score: -0.082 ± 0.3

Substance: CCFVLTVR
- amyloid nucleation score: 5.174 ± 0.035

Substance: CCGFGDEKDN
- amyloid nucleation score: -0.206 ± 1.1

Substance: CCLENTRVLTVLVSLSMV
- amyloid nucleation score: 0.582 ± 0.35

Substance: CCQFLVTWDVAYTSMFGSTL
- amyloid nucleation score: 3.56 ± 0.056

Substance: CCQSSEYCWCAWQTSVTSVG
- amyloid nucleation score: 0.404 ± 0.8

Substance: CCRGLIRMLDCCNYRRK
- amyloid nucleation score: 3.75 ± 0.067

Substance: CCVVYF
- amyloid nucleation score: 9.638 ± 0.039

Substance: CDFSSVTD
- amyloid nucleation score: -0.357 ± 0.4

Substance: CDLFGSCVDIWDTYINLSDR
- amyloid nucleation score: -0.573 ± 1.1

Substance: CDMSHGTFFTIFCRLTNA
- amyloid nucleation score: 4.81 ± 0.11

Substance: CDQYHSQPWMLKTQIRLMTA
- amyloid nucleation score: 1.27 ± 0.3

Substance: CDQYLIYNLSVSGMSIASRG
- amyloid nucleation score: -0.497 ± 0.79

Substance: CEFRDQRFPLVCAGYGRYIG
- amyloid nucleation score: 0.653 ± 0.57

Substance: CEHRSLTFWHNGLLD
- amyloid nucleation score: -0.143 ± 0.65

Substance: CEMLCQTIHSTLTWGIRRLS
- amyloid nucleation score: 1.12 ± 0.46

Substance: CFFFISAVGPEILIVGFLGV
- amyloid nucleation score: -0.684 ± 1

Substance: CFFTCC
- amyloid nucleation score: 9.912 ± 0.045

Substance: CFRNWACMSSQRYCMVVRGN
- amyloid nucleation score: -1.58 ± 0.54

Substance: CFSRIFICN
- amyloid nucleation score: -0.075 ± 0.49

Substance: CFVGTQLSFKVG
- amyloid nucleation score: 0.173 ± 0.49

Substance: CFVWIIRLYVQSRMLSTSNL
- amyloid nucleation score: -0.181 ± 0.8

Substance: CGLYWFMVFTF
- amyloid nucleation score: 0.147 ± 0.76

Substance: CGNLSCPVGVCGIFRRPSTG
- amyloid nucleation score: inactive

Substance: CGSRQAA
- amyloid nucleation score: 5.3 ± 0.085

Substance: CGWTDFMMYTWTEIMQIQLR
- amyloid nucleation score: -1.03 ± 0.76

Substance: CHKSACCKILVDDIALFN
- amyloid nucleation score: -0.419 ± 0.32

Substance: CHLIVICIQFDKLNLESAFH
- amyloid nucleation score: 0.547 ± 0.81

Substance: CHRAKTVVGNRVNRGDWDNP
- amyloid nucleation score: -0.434 ± 0.76

Substance: CHRLSNLKRVDDAGFVRWNY
- amyloid nucleation score: -0.477 ± 0.23

Substance: CIELFPFAMVNRIFATYSYH
- amyloid nucleation score: -0.352 ± 0.25

Substance: CIGLHC
- amyloid nucleation score: -0.196 ± 1

Substance: CIISFGLMHEYCYVAM
- amyloid nucleation score: 1.9 ± 0.13

Substance: CILARWRYRRLHTSGLWASK
- amyloid nucleation score: 0.9 ± 0.43

Substance: CIMVSIVPKGVCLGVLVAVA
- amyloid nucleation score: 0.345 ± 0.28

Substance: CINANRGRFLKEIMDLVLRE
- amyloid nucleation score: -0.586 ± 0.23

Substance: CINVYKY
- amyloid nucleation score: 6.768 ± 0.026

Substance: CIRRESCIRICGGDCVCHRA
- amyloid nucleation score: 2.97 ± 0.091

Substance: CIYVYSLVWM
- amyloid nucleation score: 2.42 ± 0.2

Substance: CKKKSRTDCMLSFCVCFDGV
- amyloid nucleation score: 7.276 ± 0.035

Substance: CKLISFIRYPPPAYVVSRER
- amyloid nucleation score: 2.33 ± 0.13

Substance: CKMRFLNMWRHFLKCLTAYT
- amyloid nucleation score: inactive

Substance: CKTTQDSDITCK
- amyloid nucleation score: -0.747 ± 0.79

Substance: CKVSVDN
- amyloid nucleation score: 0.011 ± 0.36

Substance: CKWIKEIVVED
- amyloid nucleation score: -0.981 ± 1

Substance: CKWWGRGEGDIVVLWLSEKL
- amyloid nucleation score: 0.942 ± 0.66

Substance: CLCCYTIM
- amyloid nucleation score: 7.381 ± 0.044

Substance: CLCGYYQSRMDTYYEL
- amyloid nucleation score: -2.18 ± 0.54

Substance: CLCPTNYDSSRIYLVRC
- amyloid nucleation score: inactive
